{"source": "patent US20240309110A1", "about": "(DANMARKS TEKNISKE UNIVERSITET, published 2024)", "binders": {"B1": {"name": "scFv C7-STnMUC1 (scFv)", "scFv": "VVVTQTPLSLPVSLGDQASISCRSSQSLVHSNGNTYLHWYLQKPGQSPKLLIYKVSNRFSGVPDRFSGSGSGTDFTLKISRVEAEDLGVYFCSQSTHVPRTFGGGTKLEIKRGGGSGGGSGGGSGGGSGGGSQVQMQQSDAELVKPGASVKISCKASGYTFTDHAIHWVKRKPEQGLEWIGYISPGNDDIKYNEKFKGKATLTADKSSSTAYMQLNSLTSEDSAVYFCKRSLLALDYWGQGTTLTVSS", "notes": "From the STn-template library"}, "B2": {"name": "scFv 2D9Chi (scFv, V domains shown)", "VH": "not shown", "VL": "DIVMSQSPSSLAVSVGEKVTMSCKSSQSLLYSSDQKNYLAWYQQKPGQSPKLLIYWASTRESGVPDRFTGSGSGTDFTLTISSVKAEDLAVYYCQQCYSYPFTFGSGTKLERKR", "notes": "2D9Chi comprises the 2D9 VL domain and G2D11 VH domain"}, "B3": {"name": "scFv 5E5 (scFv, V domains shown)", "VH": "QSDAELVKPGSSVKISCKASGYTFTDHAIHWVKQKPEQGLEWIGHFSPGNTDIKYNDKFKGKATLTVDRSSSTAYMQLNSLTSEDSAVYFCKTSTFFFDYWGQGTTLTVSS", "VL": "ELVMTQSPSSLTVTAGEKVTMICKSSQSLLNSGDQKNYLTWYQQKPGQPPKLLIFWASTRESGVPDRFTGSGSGDFTLTISSVQAEDLAVYYCQNDYSYPLTFGAGTKLELK", "notes": "Single chain Fv in the microarray; also called svFV 5E5"}, "B4": {"name": "scFv C4-STnMUC1 (scFv)", "scFv": "IVMTQSPSSLAVSAGEKVTMSCKSSQSLLNSRTRKNYLAWYQQKPGQSPKLLIYWASTRHTGVPDRFTGSGSGTDFTLTISNVQSEDLAEYFCQQYNSYPYTFGGGTKLEIKRGGGSGGGSGGGSGGGSGGGSQVQMQQSDAELVKPGASVKISCKASGYTFTDHAIHWVKRKPEQGLEWIGYISPGNDDIKYNEKFKGKATLTADKSSSTAYMQLNSLTSEDSAVYFCKRSLLALDYWGQGTTLTVSS", "notes": "From the STn-template library"}, "B5": {"name": "scFv D3-STnMUC1 (scFv)", "scFv": "IVMTQSPSSLAVSAGEKVTMSCKSSQSLLNSRTRKNYLAWYQQKPGQSPKLLIYWASTRHTGVPDRFTGSGSGTDFTLTISNVQSEDLAEYFCQQYNSYPYTFGGGTKLEIKRGGGSGGGSGGGSGGGSGGGSQVQMQQSDAELVKPGASVKISCKASGYTFTDHAIHWVKRKPEQGLEWIGYISPGNDDIKYNEKFKGKATLTADKSSSTAYMQLNSLTSEDSAVYFCKRSLLALDYWGQGTTLTVSS", "notes": "From the STn-template library"}, "B6": {"name": "scFv G2D11 mutant M1 (LAL) (scFv)", "scFv": "DVVMTQSHKFMSTSVGDRVSITCKASQDVGTAVAWYQQKPGQSPKLLIYWASTRHTGVPDRFTGSGSGTDFTLTISNVQSEDLADYFCQQYSSYPLTFGGGTKLEMKRGGGGSGGGGSGGGGSGGGGSQVQMQQSDAELVKPGASVKISCKASGYIFADHAIHWVKRKPEQGLEWIGYISPGNDDIKYNEKFKGKATLTADKSSSTAYMQLNSLTSEDSAVYFCKRSLLALDYWGQGTTLTVSS", "notes": "Mutant of scFv G2D11 with the mutations in the VH domain; '-' stands for the deletion of G102; also called LAL mutant M1"}, "B7": {"name": "scFv G2D11 mutant M2 (LAL-TFT) (scFv)", "scFv": "DVVMTQSHKFMSTSVGDRVSITCKASQDVGTAVAWYQQKPGQSPKLLIYWASTRHTGVPDRFTGSGSGTDFTLTISNVQSEDLADYFCQQYSSYPLTFGGGTKLEMKRGGGGSGGGGSGGGGSGGGGSQVQMQQSDAELVKPGASVKISCKASGYTFTDHAIHWVKRKPEQGLEWIGYISPGNDDIKYNEKFKGKATLTADKSSSTAYMQLNSLTSEDSAVYFCKRSLLALDYWGQGTTLTVSS", "notes": "also called LAL+TFT mutant M2"}, "B8": {"name": "scFv G2D11 mutant M4 (TFT-G) (scFv)", "scFv": "DVVMTQSHKFMSTSVGDRVSITCKASQDVGTAVAWYQQKPGQSPKLLIYWASTRHTGVPDRFTGSGSGTDFTLTISNVQSEDLADYFCQQYSSYPLTFGGGTKLEMKRGGGGSGGGGSGGGGSGGGGSQVQMQQSDAELVKPGASVKISCKASGYTFTDHAIHWVKRKPEQGLEWIGYISPGNGDIKYNEKFKGKATLTADKSSSTAYMQLNSLTSEDSAVYFCKRSLPGTFDYWGQGTTLTVSS", "notes": "The only mutant without LAL; also called TFT mutation only"}}, "key": {"[1]": {"biological_target": "T1, MUC1 peptide no 1 (bisTn-MUC1): Btn-Ahx-SAPDTRPAPGS*T*APPAHGVTSAPD-OH (N-terminal Btn-Ahx (biotin-aminohexyl); GalNAc (Tn) on the Ser and the Thr marked * in GS*T*AP)", "T1 construct": "Synthetic MUC1 glycopeptide; also called peptide 1; target peptide 1", "T1 peptide": "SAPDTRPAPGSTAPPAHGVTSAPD", "assay": "glycopeptide microarray, bar chart with single points [panel C7]"}, "[2]": {"biological_target": "MUC1 20-mer glycopeptide no. 29 of Table 5 (…, no Ala substitution) (GalNAc sites are shown in bold and underlined in Table 5; the marks are lost in the text)", "sequence (peptide, as listed by the source)": "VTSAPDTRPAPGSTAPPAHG", "assay": "glycopeptide microarray (20-mer MUC1 Tn-glycopeptides printed on a chip), RFU as heat map"}, "[3]": {"biological_target": "T2, MUC1 20-mer glycopeptide no. 24 of Table 5 (VTSAPDTRPAPGSAAPPAHG, Thr to Ala) (GalNAc sites are shown in bold and underlined in Table 5; the marks are lost in the text)", "T2 peptide": "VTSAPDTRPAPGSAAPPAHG", "assay": "glycopeptide microarray"}, "[4]": {"biological_target": "T3, AHGVTSAPDTR (T13 and S14 carry GalNAc (Tn), bold and underlined on the sheet)", "T3 construct": "also called MUC1 20-mer glycopeptide no", "T3 peptide": "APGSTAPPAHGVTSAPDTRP", "assay": "glycopeptide microarray (20-mer MUC1 Tn-glycopeptides printed on a chip), RFU as heat map"}, "[5]": {"biological_target": "T4, PAPGSTAAPAH (S13 and T14 carry GalNAc (Tn), bold and underlined on the sheet)", "T4 construct": "also called MUC1 20-mer glycopeptide no", "T4 peptide": "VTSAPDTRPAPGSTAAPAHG", "assay": "glycopeptide microarray (20-mer MUC1 Tn-glycopeptides printed on a chip), RFU as heat map"}, "[6]": {"biological_target": "T1, MUC1 peptide no 1 (bisTn-MUC1): …", "assay": "glycopeptide microarray, bar chart with single points [panel C4]"}, "[7]": {"biological_target": "T1, MUC1 peptide no 1 (bisTn-MUC1): …", "assay": "glycopeptide microarray, bar chart with single points [panel D3]"}, "[8]": {"biological_target": "T1, MUC1 peptide no 1 (bisTn-MUC1): …", "assay": "glycopeptide microarray"}, "[9]": {"biological_target": "T5, MUC1 peptide no 11 (bisSTnMUC1): GSTAP (not fully specified (residue 2))", "T5 construct": "also called glycopeptide 11", "T5 peptide": "GST(Neu5Ac(a2-6)GalNAc)AP", "assay": "glycopeptide microarray, signal as heat map"}, "[10]": {"biological_target": "T6, MUC1 peptide no 12 (monoSTnMUC1): GSTAP", "T6 construct": "also called glycopeptide 12", "T6 peptide": "GST(Neu5Ac(a2-6)GalNAc)AP", "assay": "glycopeptide microarray, signal as heat map"}}, "note": "No end group written: not given here.", "data": [{"binder": "B1", "values": [{"measurement": "binding result", "setting": "[1]", "value": "no binding"}]}, {"binder": "B2", "values": [{"measurement": "binding result", "setting": "[2]", "value": "no binding"}]}, {"binder": "B3", "values": [{"measurement": "binding result", "setting": "[3]", "value": "no binding"}, {"measurement": "binding result", "setting": "[4]", "value": "no binding"}, {"measurement": "binding result", "setting": "[5]", "value": "no binding"}]}, {"binder": "B4", "values": [{"measurement": "binding result", "setting": "[6]", "value": "no binding"}]}, {"binder": "B5", "values": [{"measurement": "binding result", "setting": "[7]", "value": "no binding"}]}, {"binder": "B6", "values": [{"measurement": "binding result", "setting": "[8]", "value": "no binding"}, {"measurement": "binding result", "setting": "[9]", "value": "no binding"}, {"measurement": "binding result", "setting": "[10]", "value": "no binding"}]}, {"binder": "B7", "values": [{"measurement": "binding result", "setting": "[8]", "value": "no binding"}]}, {"binder": "B8", "values": [{"measurement": "binding result", "setting": "[10]", "value": "no binding"}]}]}
